{"source": "paper PMC7884711", "about": "“Identification of efficient prokaryotic cell-penetrating peptides with applications in bacterial biotechnology” (Communications Biology, 2021)", "assay_type_in_all_cases": "cell-based, Escherichia coli", "key": {"E. coli DH5α cells [1]": {"system": "E. coli DH5α cells", "assay": "Inhibition of bacterial cell growth by CPPs (Max OD600 relative to control)", "conditions": "for Max OD (%) (Figure 3f): E. coli DH5α diluted 1/1000 in LB, 5 μg TAMRA-CPP (0.1 μg/μL), OD600 monitored 18 h, max OD of treated cells / max OD of control cells; for Growth rate (%): E. coli growth with CPP, relative to control; for Max OD (%): library CPPs, E. coli growth to stationary phase, relative to non-CPP-treated control, mean of n = 3", "method": "E. coli DH5α cells were grown until OD600 = 1 at 37 °C with shaking at 200 rpm. […] Then, cell growth (OD600) was monitored for 18 h by using the Synergy^TM H1 hybrid multi-mode microplate reader (BioTek, Vermont, USA). As a control, we used E. coli cells that were not treated with CPPs."}, "E. coli DH5α cells [2]": {"system": "E. coli DH5α cells", "assay": "Penetration efficiency of TAMRA-labeled CPPs, electroporation-based method, flow cytometry", "conditions": "for Penetration efficiency (TAMRA fluorescence in E. coli): library CPPs, electroporation, Tris buffer pH 7.5, 1 h, mean of n = 3–5; for Cell penetration efficiency (TAMRA fluorescence), Electrooration - Tris buffer / Cell penetration efficiency (TAMRA fluorescence), Electrooration - DW: electrocompetent E. coli DH5α, 5 μg TAMRA-CPP, electroporation 1.8 kV; for Cell penetration efficiency (TAMRA fluorescence), Electrooration - Tris buffer: 20 mM Tris-HCl pH 7.5, 1 h; for Cell penetration efficiency (TAMRA fluorescence), Electrooration - DW: distilled water, 1 h", "source_text": "(§1) (Fig. 2a). […] First, we prepared electrocompetent and chemically competent cells."}, "E. coli DH5α cells [3]": {"system": "E. coli DH5α cells", "assay": "Penetration efficiency of TAMRA-labeled CPPs, chemical (CaCl2) treatment method, flow cytometry", "conditions": "for Cell penetration efficiency (TAMRA fluorescence), Chemical (CaCl2) method - Tris buffer / Cell penetration efficiency (TAMRA fluorescence), Chemical (CaCl2) method - DW: 50 mM CaCl2-treated E. coli DH5α, 5 μg TAMRA-CPP; for Cell penetration efficiency (TAMRA fluorescence), Chemical (CaCl2) method - Tris buffer: 20 mM Tris-Cl pH 7.5, 1 h; for Cell penetration efficiency (TAMRA fluorescence), Chemical (CaCl2) method - DW: 5 × 10^7 cells/50 μL, distilled water, 1 h; for Penetration efficiency (TAMRA FI): TAMRA fluorescence intensity in E. coli, library screen of 98 CPPs", "source_text": "as §1"}, "[4]": {"conditions": "class (Cytotoxic / Safe), cutoff of 50%"}}, "note": "Read-outs that look alike come from different tables or passages of the source. Where no end group is shown, it is not given here."}
{"substance": "CTP (GGRRARRRRRR; also: TAMRA label, site not given here) [CPP 96, TAMRA-labeled CPP of the 98-CPP library]", "values": [{"measurement": "Max OD (%) (Figure 3f)", "setting": "E. coli DH5α cells [1]; replicate 1", "value": 80.7143, "unit": "%"}, {"measurement": "Max OD (%) (Figure 3f)", "setting": "E. coli DH5α cells [1]; replicate 2", "value": 88.7755, "unit": "%"}, {"measurement": "Max OD (%) (Figure 3f)", "setting": "E. coli DH5α cells [1]; replicate 3", "value": 86.7347, "unit": "%"}, {"measurement": "Growth rate (%)", "setting": "E. coli DH5α cells [1]", "value": 85.4082, "unit": "%"}, {"measurement": "Anti-bacterial activity", "setting": "E. coli DH5α cells [1]; [4]", "value": "Safe"}, {"measurement": "Max OD (%)", "setting": "E. coli DH5α cells [1]", "value": 85.4, "unit": "%"}, {"measurement": "Penetration efficiency (TAMRA fluorescence in E. coli)", "setting": "E. coli DH5α cells [2]", "value": 3688.0, "unit": "A.U."}]}
{"substance": "Tat49-57 (RKKRRQRRR; also: TAMRA label, site not given here) [CPP 45, TAMRA-labeled CPP of the 98-CPP library]", "values": [{"measurement": "Max OD (%) (Figure 3f)", "setting": "E. coli DH5α cells [1]; replicate 1", "value": 75.4515, "unit": "%"}, {"measurement": "Max OD (%) (Figure 3f)", "setting": "E. coli DH5α cells [1]; replicate 2", "value": 62.3077, "unit": "%"}, {"measurement": "Max OD (%) (Figure 3f)", "setting": "E. coli DH5α cells [1]; replicate 3", "value": 70.8361, "unit": "%"}, {"measurement": "Growth rate (%)", "setting": "E. coli DH5α cells [1]", "value": 69.5318, "unit": "%"}, {"measurement": "Anti-bacterial activity", "setting": "E. coli DH5α cells [1]; [4]", "value": "Safe"}, {"measurement": "Max OD (%)", "setting": "E. coli DH5α cells [1]", "value": 69.5, "unit": "%"}, {"measurement": "Penetration efficiency (TAMRA fluorescence in E. coli)", "setting": "E. coli DH5α cells [2]", "value": 2837.5, "unit": "A.U."}]}
{"substance": "Penetratin (RQIKIWFPNRRMKWKK; also: TAMRA label, site not given here) [CPP 17, TAMRA-labeled CPP of the 98-CPP library, one of five used to evaluate delivery methods]", "values": [{"measurement": "Cell penetration efficiency (TAMRA fluorescence), Chemical (CaCl2) method - Tris buffer", "setting": "E. coli DH5α cells [3]; replicate 1", "value": 29.4497, "unit": "A.U."}, {"measurement": "Cell penetration efficiency (TAMRA fluorescence), Chemical (CaCl2) method - Tris buffer", "setting": "E. coli DH5α cells [3]; replicate 2", "value": 24.3955, "unit": "A.U."}, {"measurement": "Cell penetration efficiency (TAMRA fluorescence), Chemical (CaCl2) method - Tris buffer", "setting": "E. coli DH5α cells [3]; replicate 3", "value": 28.6202, "unit": "A.U."}, {"measurement": "Cell penetration efficiency (TAMRA fluorescence), Chemical (CaCl2) method - DW", "setting": "E. coli DH5α cells [3]; replicate 1", "value": 134.244, "unit": "A.U."}, {"measurement": "Cell penetration efficiency (TAMRA fluorescence), Chemical (CaCl2) method - DW", "setting": "E. coli DH5α cells [3]; replicate 2", "value": 173.67, "unit": "A.U."}, {"measurement": "Cell penetration efficiency (TAMRA fluorescence), Chemical (CaCl2) method - DW", "setting": "E. coli DH5α cells [3]; replicate 3", "value": 170.238, "unit": "A.U."}, {"measurement": "Penetration efficiency (TAMRA FI)", "setting": "E. coli DH5α cells [3]", "value": 647.56}, {"measurement": "Anti-bacterial activity", "setting": "E. coli DH5α cells [1]", "value": "Safe"}, {"measurement": "Growth rate (%)", "setting": "E. coli DH5α cells [1]", "value": 56.8825, "unit": "%"}, {"measurement": "Cell penetration efficiency (TAMRA fluorescence), Electrooration - Tris buffer", "setting": "E. coli DH5α cells [2]; replicate 1", "value": 794.592, "unit": "A.U."}, {"measurement": "Cell penetration efficiency (TAMRA fluorescence), Electrooration - Tris buffer", "setting": "E. coli DH5α cells [2]; replicate 2", "value": 585.819, "unit": "A.U."}, {"measurement": "Cell penetration efficiency (TAMRA fluorescence), Electrooration - Tris buffer", "setting": "E. coli DH5α cells [2]; replicate 3", "value": 1028.54, "unit": "A.U."}, {"measurement": "Cell penetration efficiency (TAMRA fluorescence), Electrooration - Tris buffer", "setting": "E. coli DH5α cells [2]; replicate 4", "value": 181.291, "unit": "A.U."}, {"measurement": "Cell penetration efficiency (TAMRA fluorescence), Electrooration - DW", "setting": "E. coli DH5α cells [2]; replicate 1", "value": 634.038, "unit": "A.U."}, {"measurement": "Cell penetration efficiency (TAMRA fluorescence), Electrooration - DW", "setting": "E. coli DH5α cells [2]; replicate 2", "value": 587.6, "unit": "A.U."}, {"measurement": "Cell penetration efficiency (TAMRA fluorescence), Electrooration - DW", "setting": "E. coli DH5α cells [2]; replicate 3", "value": 471.96, "unit": "A.U."}]}
{"substance": "Tat (GRKKRRQRRRPPQRKC; also: TAMRA label, site not given here) [CPP 67, TAMRA-labeled CPP of the 98-CPP library]", "values": [{"measurement": "Max OD (%) (Figure 3f)", "setting": "E. coli DH5α cells [1]; replicate 1", "value": 60.9603, "unit": "%"}, {"measurement": "Max OD (%) (Figure 3f)", "setting": "E. coli DH5α cells [1]; replicate 2", "value": 54.071, "unit": "%"}, {"measurement": "Max OD (%) (Figure 3f)", "setting": "E. coli DH5α cells [1]; replicate 3", "value": 61.2735, "unit": "%"}, {"measurement": "Growth rate (%)", "setting": "E. coli DH5α cells [1]", "value": 58.7683, "unit": "%"}, {"measurement": "Anti-bacterial activity", "setting": "E. coli DH5α cells [1]; [4]", "value": "Safe"}, {"measurement": "Max OD (%)", "setting": "E. coli DH5α cells [1]", "value": 58.8, "unit": "%"}, {"measurement": "Penetration efficiency (TAMRA fluorescence in E. coli)", "setting": "E. coli DH5α cells [2]", "value": 2821.8, "unit": "A.U."}]}
{"substance": "TatsMTS (TMG) (GRKKRRQRRRMVSAL; also: TAMRA label, site not given here) [CPP 71, TAMRA-labeled CPP of the 98-CPP library]", "values": [{"measurement": "Max OD (%) (Figure 3f)", "setting": "E. coli DH5α cells [1]; replicate 1", "value": 73.904, "unit": "%"}, {"measurement": "Max OD (%) (Figure 3f)", "setting": "E. coli DH5α cells [1]; replicate 2", "value": 87.9958, "unit": "%"}, {"measurement": "Max OD (%) (Figure 3f)", "setting": "E. coli DH5α cells [1]; replicate 3", "value": 80.3758, "unit": "%"}, {"measurement": "Growth rate (%)", "setting": "E. coli DH5α cells [1]", "value": 80.7585, "unit": "%"}, {"measurement": "Anti-bacterial activity", "setting": "E. coli DH5α cells [1]; [4]", "value": "Safe"}, {"measurement": "Max OD (%)", "setting": "E. coli DH5α cells [1]", "value": 80.8, "unit": "%"}, {"measurement": "Penetration efficiency (TAMRA fluorescence in E. coli)", "setting": "E. coli DH5α cells [2]", "value": 3266.3, "unit": "A.U."}]}
{"substance": "rrrrrrrrrcqcrrkn [CPP 80]", "values": [{"measurement": "Penetration efficiency (TAMRA FI)", "setting": "E. coli DH5α cells [3]", "value": 1432.29}, {"measurement": "Max OD (%) (Figure 3f)", "setting": "E. coli DH5α cells [1]; replicate 1", "value": 65.3033, "unit": "%"}, {"measurement": "Max OD (%) (Figure 3f)", "setting": "E. coli DH5α cells [1]; replicate 2", "value": 60, "unit": "%"}, {"measurement": "Max OD (%) (Figure 3f)", "setting": "E. coli DH5α cells [1]; replicate 3", "value": 55.5286, "unit": "%"}, {"measurement": "Growth rate (%)", "setting": "E. coli DH5α cells [1]", "value": 60.2773, "unit": "%"}, {"measurement": "Anti-bacterial activity", "setting": "E. coli DH5α cells [1]; [4]", "value": "Safe"}]}
{"substance": "Tat48-57 (GRKKRRQRRR; also: TAMRA label, site not given here) [CPP 70, TAMRA-labeled CPP of the 98-CPP library]", "values": [{"measurement": "Max OD (%) (Figure 3f)", "setting": "E. coli DH5α cells [1]; replicate 1", "value": 81.1065, "unit": "%"}, {"measurement": "Max OD (%) (Figure 3f)", "setting": "E. coli DH5α cells [1]; replicate 2", "value": 82.6722, "unit": "%"}, {"measurement": "Max OD (%) (Figure 3f)", "setting": "E. coli DH5α cells [1]; replicate 3", "value": 78.7056, "unit": "%"}, {"measurement": "Growth rate (%)", "setting": "E. coli DH5α cells [1]", "value": 80.8281, "unit": "%"}, {"measurement": "Anti-bacterial activity", "setting": "E. coli DH5α cells [1]; [4]", "value": "Safe"}, {"measurement": "Max OD (%)", "setting": "E. coli DH5α cells [1]", "value": 80.8, "unit": "%"}, {"measurement": "Penetration efficiency (TAMRA fluorescence in E. coli)", "setting": "E. coli DH5α cells [2]", "value": 4043.3, "unit": "A.U."}]}
